Values of other authors as cited in article PMC6396024, “Artemin and an Artemin-Derived Peptide, Artefin, Induce Neuronal Survival, and Differentiation Through Ret and NCAM” (Frontiers in Molecular Neuroscience, 2019).

Test system: NCAM
Details: ref Paratcha et al., 2003; Nielsen et al., 2009; cited from earlier work
Description: We have previously shown that the GDNF-binding site for NCAM is localized to the heel region and that gliafin, a GDNF-derived peptide covering this region, binds to NCAM ([Nielsen et al., 2009]). As the tertiary structure of ARTN is similar to that of GDNF, we speculated that the artefin motif also contains a potential binding site for NCAM. […] Whether NCAM can be an alternative receptor for other GFLs has been establish ...

B1: GDNF: glial cell line-derived neurotrophic factor (protein, UniProt P39905 78-211, looked up)
Glial cell line-derived …: SPDKQMAVLPRRERNRQAAAANPENSRGKGRRGQRGKNRGCVLTAIHLNVTDLGLGYETKEELIFRYCSGSCDAAETTYDKILKNLSRNRRLVSDKVGQACCRPIAFDDDLSFLDDNLVYHILRKHSAKRCGCI
- interaction with NCAM: interacts directly with NCAM
